How the values were obtained:
Test in all cases: cell-based or functional assay
[1] = molecular target: rat MHC class II RT1B (I-A) glycoproteins (rat)
[2] = molecular target: rat IL-2 receptor on cells (rat)
[3] = molecular target: rat IL-4 receptor on cells (rat)

Question: How did the [3H]thymidine incorporation of RsL.11 T cells with 100 nM cytokine/NAg in the presence of OX6 [1] turn out when OX6 anti-I-A (RT1B) IgG1 mAb (antibody) was run?
Answer: Its [3H]thymidine incorporation of RsL.11 T cells with 100 nM cytokine/NAg in the presence of OX6 is under 10000 cpm.

Question: What about the [3H]thymidine incorporation of RsL.11 T cells with 100 fM-10 nM cytokine/NAg in the presence of OX6 [1] of the same molecule?
Answer: Its [3H]thymidine incorporation of RsL.11 T cells with 100 fM-10 nM cytokine/NAg in the presence of OX6 is under 1000 cpm.

Question: What about the inhibition of the antigenic reactivity of IL4.4 (RsL.11 proliferation, irradiated splenic APC) (orders of magnitude) [1] of the same molecule?
Answer: The inhibition of the antigenic reactivity of IL4.4 (RsL.11 proliferation, irradiated splenic APC) (orders of magnitude) was over 5.

Question: And the inhibition of the response to GPMBP (RsL.11 proliferation, irradiated splenic APC) [1]?
Answer: The inhibition of the response to GPMBP (RsL.11 proliferation, irradiated splenic APC) was 100 fold.

B1: IL2Ekdel (rat IL2/GP73-87/6his fusion protein) (protein)
chain: APTSSPAKETQQHLEQLLLDLQVLLRGIDNYKNLKLPMMLTFKFYLPKQATELKHLQCLENELGALQRVLDLTQSKSFHLEDAGNFISNIRVTVVKLKGSENKFECQFDDEPATVVEFLRRWIAICQSIISTMTQPQKSQRSQDENPVVHHHHHHH
Question: Which results are given for B1?
Answer: lowest concentration fully active in MHCII-dependent T cell-mediated killing assay [2]: 100 fM; potency against GPMBP or DHFR-NAg in MHCII-dependent T cell-mediated killing assay (R1-trans T-APC) (orders of magnitude) [2]: > 5

B2: IL4.4 (rat IL4/EK/GP73-87/6his fusion protein) (protein)
chain: CNDSPLREIINTLNQVTEKGTPCTEMFVPDVLTATRNTTENELICRASRVLRKFYFPRDVPPCLKNKSGVLGELRKLCRGVSGLNSLRSCTVNESTLTTLKDFLESLKSILRGKYLQSCTSMSGDDDDKGPQKSQRSQDENPVVHHHHHHH
Question: What does the source list for B2?
Answer: antigenic potency against GPMBP added with saturating IL-4 as a separate molecule [3]: 100 fold; antigenic potency against GPMBP, by antigen concentrations eliciting a half maximal response (RsL.11 proliferation, irradiated splenic APC) [3]: > 100 fold; inhibition by soluble IL-4 of the RsL.11 proliferative response to IL4.4 (irradiated splenic APC) [3]: 10 fold

B3: IL2.7 (rat IL2/EK/GP73-87/6his fusion protein) (protein)
chain: APTSSPAKETQQHLEQLLLDLQVLLRGIDNYKNLKLPMMLTFKFYLPKQATELKHLQCLENELGALQRVLDLTQSKSFHLEDAGNFISNIRVTVVKLKGSENKFECQFDDEPATVVEFLRRWIAICQSIISTMTQGDDDDKGPQKSQRSQDENPVVHHHHHHH
Question: What does the source list for B3?
Answer: antigenic potency against GPMBP added with saturating IL-2 as a separate molecule [2]: 100 fold; inhibition by soluble IL-2 of the RsL.11 proliferative response to IL2.7 (irradiated splenic APC) [2]: 10 fold; potency against GPMBP in T cell-mediated cytotoxic assay (R1-trans T-APC, irradiated RsL.11), IL-2 added 24 hours after initiation of culture [2]: 1000 times; potency against GPMBP in T cell-mediated cytotoxic assay (R1-trans T-APC, irradiated RsL.11), IL-2 added at the initiation of culture [2]: 32 fold

B4: IL4Ekdel (rat IL4/GP73-87/6his fusion protein) (protein)
chain: CNDSPLREIINTLNQVTEKGTPCTEMFVPDVLTATRNTTENELICRASRVLRKFYFPRDVPPCLKNKSGVLGELRKLCRGVSGLNSLRSCTVNESTLTTLKDFLESLKSILRGKYLQSCTSMSPQKSQRSQDENPVVHHHHHHH
Question: What does the source list for B4?
Answer: antigenic potency against GPMBP (RsL.11 proliferation, irradiated splenic APC) [3]: > 1000 times; potency against GPMBP in MHCII-dependent T cell-mediated killing assay (R1-trans T-APC) [3]: 1000 times

Reference: patent US20150125421A1
